# Results taken from IntAct's records for PubMed 31169361.
# B1: Nuclear factor erythroid 2-related factor 2 (Mus musculus), Q60795 (parent)
# chain: MMDLELPPPGLQSQQDMDLIDILWRQDIDLGVSREVFDFSQRQKDYELEKQKKLEKERQEQLQKEQEKAFFAQFQLDEETGEFLPIQPAQHIQTDTSGSASYSQVAHIPKQDALYFEDCMQLLAETFPFVDDHESLALDIPSHAESSVFTAPHQAQSLNSSLEAAMTDLSSIEQDMEQVWQELFSIPELQCLNTENKQLADTTAVPSPEATLTEMDSNYHFYSSISSLEKEVGNCGPHFLHGFEDSFSSILSTDDASQLTSLDSNPTLNTDFGDEFYSAFIAEPSDGGSMPSSAAISQSLSELLDGTIEGCDLSLCKAFNPKHAEGTMEFNDSDSGISLNTSPSRASPEHSVESSIYGDPPPGFSDSEMEELDSAPGSVKQNGPKAQPAHSPGDTVQPLSPAQGHSAPMRESQCENTTKKEVPVSPGHQKAPFTKDKHSSRLEAHLTRDELRAKALHIPFPVEKIINLPVDDFNEMMSKEQFNEAQLALIRDIRRRGKNKVAAQNCRKRKLENIVELEQDLGHLKDEREKLLREKGENDRNLHLLKRRLSTLYLEVFSMLRDEDGKPYSPSEYSLQQTRDGNVFLVPKSKKPDTKKN
# B2: Astrotactin-1 (Homo sapiens), O14525-2 (parent)
# chain: MALAGLCALLACCWGPAAVLATAAGDVDPSKELECKLKSITVSALPFLRENDLSIMHSPSASEPKLLFSVRNDFPGEMVVVDDLENTELPYFVLEISGNTEDIPLVRWRQQWLENGTLLFHIHHQDGAPSLPGQDPTEEPQHESAEEELRILHISVMGGMIALLLSILCLVMILYTRRRWCKRRRVPQPQKSASAEAANEIHYIPSVLIGGHGRESLRNARVQGHNSSGTLSIRETPILDGYEYDITDLRHHLQRECMNGGEDFASQVTRTLDSLQGCNEKSGMDLTPGSDNAKLSLMNKYKDNIIATSPVDSNHQQATLLSHTSSSQRKRINNKARAGSAFLNPEGDSGTEAENDPQLTFYTDPSRSRRRSRVGSPRSPVNKTTLTLISITSCVIGLVCSSHVNCPLVVKITLHVPEHLIADGSRFILLEGSQLDASDWLNPAQVVLFSQQNSSGPWAMDLCARRLLDPCEHQCDPETGECLCYEGYMKDPVHKHLCIRNEWGTNQGPWPYTIFQRGFDLVLGEQPSDKIFRFTYTLGEGMWLPLSKSFVIPPAELAINPSAKCKTDMTVMEDAVEVREELMTSSSFDSLEVLLDSFGPVRDCSKDNGGCSKNFRCISDRKLDSTGCVCPSGLSPMKDSSGCYDRHIGVDCSDGFNGGCEQLCLQQMAPFPDDPTLYNILMFCGCIEDYKLGVDGRSCQLITETCPEGSDCGESRELPMNQTLFGEMFFGYNNHSKEVAAGQVLKGTFRQNNFARGLDQQLPDGLVVATVPLENQCLEEISEPTPDPDFLTGMVNFSEVSGYPVLQHWKVRSVMYHIKLNQVAISQALSNALHSLDGATSRADFVALLDQFGNHYIQEAIYGFEESCSIWYPNKQVQRRLWLEYEDISKGNSPSDESEERERDPKVLTFPEYITSLSDSGTKHMAAGVRMECHSKGRCPSSCPLCHVTSSPDTPAEPVLLEVTKAAPIYELVTNNQTQRLLQEATMSSLWCSGTGDVIEDWCRCDSTAFGADGLPTCAPLPQPVLRLSTVHEPSSTLVVLEWEHSEPPIGVQIVDYLLRQEKVTDRMDHSKVETETVLSFVDDIISGAKSPCAMPSQVPDKQLTTISLIIRCLEPDTIYMFTLWGVDNTGRRSRPSDVIVKTPCPVVDDVKAQEIADKIYNLFNGYTSGKEQQTAYNTLLDLGSPTLHRVLYHYNQHYESFGEFTWRCEDELGPRKAGLILSQLGDLSSWCNGLLQEPKISLRRSSLKYLGCRYSEIKPYGLDWAELSRDLRKTCEEQTLSIPYNDYGDSKEI
# B3: Astrotactin-1 (Mus musculus), Q61137-2 (parent)
# chain: MALAGLCALFACCWGPAAVLATAAGDVDPSKELECKLKSITVSALPFLRENDLSIMHSPSASEPKLLFSVRNDFPGEMVVVDDLENTELPYFVLEISGNTEDIPLVRWRQQWLENGTLLFHIHHQDGAPSLPGQDPTEEPQHESAEEELRILHISVMGGMIALLLSILCLVMILYTRRRWCKRRRVPQPQKSASAEAANEIHYIPSVLIGGHGRESLRNARVQGHNSSGTLSIRETPILDGYEYDITDLRHHLQRECMNGGEDFASQVTRTLDSLQGCNEKSGMDLTPGSDNAKLSLMNKYKDNIIATSPVDSNHQQATLLSHTSSSQRKRINNKARAGSAFLNPEGDSSTEAENDPQLTFYTDPSRSRRRSRVGSPRSPVNKTTLTLISVTSCVIGLVCSSHVSCPLVVKITLHVPEHLIADGSRFILLEGSQLDASDWLNPAQVVLFSQQNSSGPWAMDLCARRLLDPCEHQCDPETGECLCYEGYMKDPVHKHLCIRNEWGTNQGPWPYTIFQRGFDLVLGEQPSDKIFRFTYTLGEGMWLPLSKSFVIPPAELAINPSAKCKTDMTVMEDAVEVREELMTSSSFDSLEVLLDSFGPVRDCSKDNGGCSKNFRCISDRKLDSTGCVCPSGLSPMKDSSGCYDRHIGVDCSDGFNGGCEQLCLQQMAPFPEDPTLYNILMFCGCIEDYKLGVDGRSCQLVTETCPEGGDCGESREVPMNQTLFGEMFFGYNNQSKEVATGQVLKGTFRQNNFARGLDQQLPDGLVVASVPLENQCLEEISEPTPDPDFLTGMVNFSEVSGYPVLQHWKVRSVMYHIKLNQAAISQAFSNALHSLDGATSRADFVALLDQFGNHYIQEAVYGFEESCSIWYPNKQVQRRLWLEYEDISKGNSPSDESEERERDPKVLTFPEYIASLSDSGTKRMAAGVRMECQSKGRCPSSCPLCHVTSSPETPAEPVLLEVTRASPIYELVTNNQTQRLLQEATMSSLWCSGTGDVIEDWCRCDSTAFGADGLPTCAPLPQPVLRLSTVHEPSSNLVVLEWEHSEPPIGVQIVDYLIRQEKVTDRMDHSKVETETVLSFVDDIISGAKAPCAMPSQVPDKQLTTISLIIRCLEPDTIYMFTLWGVDNTGRRSRPSDVIVKTPCPVVDDVKAQEIADKIYNLFNGYTSGKEQQTAYNTLLDLGSPTLHRVLYHYNQHYESFGEFTWRCEDELGPRKAGLILSQLGDLSSWCNGLLQEPKISLRRGSLKYLGCRYSEIKPYGLDWSELSRDLRKTCEEQTLSVPYNDYGDSKDI
# Variants of: B1
# Settings: with keap1_mouse Keap1, Q9Z2X8
row,effect of a mutation on the interaction,Variant
1,disrupting interaction strength,D77A;E79A

# Variants of: B2
# Settings: with keap1_human KEAP1, Q14145
# Chain of keap1_human KEAP1, Q14145 (Q14145 whole entry): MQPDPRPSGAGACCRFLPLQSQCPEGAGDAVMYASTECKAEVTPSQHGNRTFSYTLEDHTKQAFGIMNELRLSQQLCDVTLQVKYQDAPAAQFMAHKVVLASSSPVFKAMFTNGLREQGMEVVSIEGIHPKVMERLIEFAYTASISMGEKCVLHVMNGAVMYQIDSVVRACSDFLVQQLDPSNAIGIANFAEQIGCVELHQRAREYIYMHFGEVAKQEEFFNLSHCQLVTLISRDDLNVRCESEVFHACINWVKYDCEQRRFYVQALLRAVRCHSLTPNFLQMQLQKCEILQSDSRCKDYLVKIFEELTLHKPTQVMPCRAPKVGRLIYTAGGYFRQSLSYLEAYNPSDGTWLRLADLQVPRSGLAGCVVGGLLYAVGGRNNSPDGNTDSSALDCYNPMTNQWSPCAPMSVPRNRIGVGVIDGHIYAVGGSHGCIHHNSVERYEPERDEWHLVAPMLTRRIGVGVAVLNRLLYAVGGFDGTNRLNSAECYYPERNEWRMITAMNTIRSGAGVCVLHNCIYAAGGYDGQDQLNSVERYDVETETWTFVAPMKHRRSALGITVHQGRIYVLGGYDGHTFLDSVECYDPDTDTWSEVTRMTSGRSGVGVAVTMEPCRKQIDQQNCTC
row,Variant,effect of a mutation on the interaction
1,D476A;E478A,disrupting interaction strength
2,C475S;C482S,with no effect
3,C475S,decreasing interaction strength
4,C475L,with no effect
5,C475S;C484S,decreasing interaction strength

# Continued, values first:
row,effect of a mutation on the interaction,Variant
1,with no effect,C482S
2,with no effect,C484S
3,increasing interaction strength,C482S;C484S

# Variants of: B2
# Settings: with keap1_human KEAP1, Q14145
# Remark: another data set of the same source
row,effect of a mutation on the interaction,Variant
1,decreasing interaction strength,D476A;E478A

# Variants of: B3
# Settings: with keap1_mouse Keap1, Q9Z2X8
# Target sequence in this assay (Q9Z2X8 whole entry): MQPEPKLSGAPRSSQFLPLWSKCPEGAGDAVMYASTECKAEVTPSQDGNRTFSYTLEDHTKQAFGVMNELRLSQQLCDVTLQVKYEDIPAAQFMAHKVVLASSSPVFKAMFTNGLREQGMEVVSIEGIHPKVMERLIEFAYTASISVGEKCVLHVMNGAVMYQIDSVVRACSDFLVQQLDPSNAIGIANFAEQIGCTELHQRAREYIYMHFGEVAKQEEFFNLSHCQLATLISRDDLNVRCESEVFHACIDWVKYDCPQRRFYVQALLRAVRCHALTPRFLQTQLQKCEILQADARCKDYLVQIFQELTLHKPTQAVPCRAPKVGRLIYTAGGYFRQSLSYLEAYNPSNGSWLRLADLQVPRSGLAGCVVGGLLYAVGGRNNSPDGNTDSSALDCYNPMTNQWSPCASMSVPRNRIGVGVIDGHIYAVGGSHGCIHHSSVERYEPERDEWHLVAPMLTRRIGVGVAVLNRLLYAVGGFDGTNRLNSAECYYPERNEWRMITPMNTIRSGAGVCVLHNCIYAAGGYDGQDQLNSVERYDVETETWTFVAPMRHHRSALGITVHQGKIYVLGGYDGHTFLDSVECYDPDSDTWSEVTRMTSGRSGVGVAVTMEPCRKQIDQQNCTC
row,effect of a mutation on the interaction,Variant
1,with no effect,D476A;E478A
